Test results as given in paper PMC8599795.
Read-outs that look alike come from different tables or passages of the source.

Key:
Assay in all cases: SPR
[1] = target: T1, DEN3-NS1 (NAD3) (Dengue virus 3 Sri Lanka D3/H/IMTSSA-SRI/2000/1266) (UniProt Q6YMS4)
T1 sequence: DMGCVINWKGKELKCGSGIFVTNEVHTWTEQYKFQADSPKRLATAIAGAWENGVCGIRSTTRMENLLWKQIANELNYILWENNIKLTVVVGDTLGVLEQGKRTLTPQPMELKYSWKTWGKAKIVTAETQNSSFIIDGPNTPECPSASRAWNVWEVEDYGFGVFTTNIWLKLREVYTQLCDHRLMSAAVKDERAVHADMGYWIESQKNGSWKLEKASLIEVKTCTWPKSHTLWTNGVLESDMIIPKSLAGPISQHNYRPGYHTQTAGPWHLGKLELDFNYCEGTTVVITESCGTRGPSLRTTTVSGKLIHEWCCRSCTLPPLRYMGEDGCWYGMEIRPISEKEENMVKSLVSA

[2] = target: T2, DEN4-NS1 (NAD4) (Dengue virus 4 Dominica/814669/1981) (UniProt P09866)
T2 sequence: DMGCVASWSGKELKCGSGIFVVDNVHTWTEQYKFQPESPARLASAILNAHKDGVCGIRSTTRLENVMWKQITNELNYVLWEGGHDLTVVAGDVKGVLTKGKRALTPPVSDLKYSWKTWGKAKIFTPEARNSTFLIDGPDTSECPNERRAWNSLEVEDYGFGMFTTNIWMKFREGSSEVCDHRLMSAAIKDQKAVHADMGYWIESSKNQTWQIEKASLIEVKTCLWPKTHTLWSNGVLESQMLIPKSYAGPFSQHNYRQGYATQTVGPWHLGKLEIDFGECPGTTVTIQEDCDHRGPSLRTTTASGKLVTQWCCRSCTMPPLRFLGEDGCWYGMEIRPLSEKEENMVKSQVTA

[3] = target: T3, DEN2-NS1 (NAD2) (Dengue virus 2 Thailand/16681/84) (UniProt P29990); conditions: N1,N2 = Ds
T3 sequence: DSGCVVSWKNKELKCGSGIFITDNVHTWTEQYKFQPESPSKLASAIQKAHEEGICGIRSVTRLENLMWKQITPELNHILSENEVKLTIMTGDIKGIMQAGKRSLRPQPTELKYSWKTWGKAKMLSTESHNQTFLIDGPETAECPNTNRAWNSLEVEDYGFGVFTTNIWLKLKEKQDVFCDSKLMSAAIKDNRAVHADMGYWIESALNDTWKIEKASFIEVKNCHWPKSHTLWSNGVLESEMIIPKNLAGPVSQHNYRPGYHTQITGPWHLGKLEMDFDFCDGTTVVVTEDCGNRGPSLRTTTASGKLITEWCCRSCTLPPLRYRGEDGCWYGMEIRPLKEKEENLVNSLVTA

Sequence: CCGCTTGTCATCTAACCTGGCCATGTGGTACTGTAACGGCTGACAAGCGGCGCGTAGCG [Cont-D3-2-59h]
- Kd [1]: 190 nM

Sequence: CCGCTTGTCATCTANCCTGGCCNTGTGGTACTGTAACGGCTGACAAGCGGCGCGTAGCG [D3-2-59h (AptD3)]
- Kd ([1]; N = Ds): 0.057 nM

Sequence: CGGCGGAGACGTAACGCATATCAAATCAAAACAGCTTAGGGTCCGCCGCGCGTAGCG [Cont-D4-3-57h]
- Kd [2]: 2 nM

Sequence: CGGCGGAGACGTAACGCNTATCAAATCNAAACAGCTTAGGGTCCGCCGCGCGTAGCG [D4-3-57h (AptD4)]
- Kd ([2]; N = Ds): 0.03 nM

Sequence: CTCCGCTGTCAAACGGNTATCACGGCNACACACCTGCGGACAGCGGAGCGCGTAGCG [D4-1-57h]
- Kd ([2]; N = Ds): 0.029 nM

Sequence: GACGGTCTACTGGTCCGNCTGGGAACAAGNGGCGGGAGGGANGGGTGTGGGTGCGACAAGCGGAGTAGTTAGACCGTCCGCGTAGCG [D2-1d-87h]
- Kd ([3]; N3 = diol-Pa): 0.105 nM

Sequence: GGCTGGTCCGNCTGGGAACAAGNGGCGGGAGGGANGGGTGTGGGTGCGACAAGCGGACCAGCCCGCGTAGCG [D2-1d-72h (AptD2)]
- Kd ([3]; N3 = diol-Pa): 0.104 nM

Sequence: TGATATGGTCTACTGAAGTGTTGTCATCTANCCTGGCCNTGTGGTACTGTAACGGCTGACAAGCGGAGTAGTTAGACC [D3-2-78]
- Kd ([1]; N = Ds): 0.041 nM

Sequence: TGATATGGTCTACTGGAGGAGACGTAACGCNTATCAAATCNAAACAGCTTAGGGTCCGACAAGCGGAGTAGTTAGACC [D4-3-78]
- Kd ([2]; N = Ds): 0.034 nM

Sequence: TGATATGGTCTACTGGTCTCAACGGTTGTCAAACGGNTATCACGGCNACACACCTGCGGACAAGCGGAGTAGTTAGACC [D4-1-78]
- Kd ([2]; N = Ds): 0.042 nM

Sequence: TTTTCGCACTCCATGATATGGTCTACTGGTCCGNCTGGGAACAAGNGGCGGGAGGGANGGGTGTGGGTGCGACAAGCGGAGTAGTTAGACCGTCAAA [D2-1d-97]
- Kd ([3]; N3 = diol-Pa): 0.114 nM

Sequence: TTTTCGCACTCCATGATATGGTCTACTGGTCCGNCTGGGAACAAGNGGCGGGAGGGANGGGTGTGGGTGCGACAAGCGGAGTAGTTAGACCGTCAAA [D2-1y-96]
- Kd ([3]; N3 = diol-Px): 0.041 nM
